{
  "source": "paper PMC4256486",
  "about": "(Molecular & Cellular Proteomics : MCP, 2014)",
  "binders": {"B1": {"name": "IgG HCA-F1 (antibody, V domains shown)", "VH": "QVQLQESGGGLVQPGGSLRLSCAASGFTFSSYSMNWVRQAPGKGLEWVSYISSSSSTIYYADSVKGRFTISRDNAKNSLYLQMNSLRAEDTAVYYCARYRLPDFWSGYPNYGMDVWGQGTTVTVSS", "VL": "QSVLTQPPSVSGAPGQRVTISCTGSSSNIGAGYDVHWYQQLPGTAPKLLIYGNSNRPSGVPDRFSGSKSGTSASLAITGLQAEDEADYYCQSYDSSLSGHVVFGGGTKLTVL"}},
  "key": {"[1]": {"molecular_target": "Lgr5 (control), ectopically expressed on CHO cells (Homo sapiens (assumed), UniProt O75473)", "sequence (O75473 22-907)": "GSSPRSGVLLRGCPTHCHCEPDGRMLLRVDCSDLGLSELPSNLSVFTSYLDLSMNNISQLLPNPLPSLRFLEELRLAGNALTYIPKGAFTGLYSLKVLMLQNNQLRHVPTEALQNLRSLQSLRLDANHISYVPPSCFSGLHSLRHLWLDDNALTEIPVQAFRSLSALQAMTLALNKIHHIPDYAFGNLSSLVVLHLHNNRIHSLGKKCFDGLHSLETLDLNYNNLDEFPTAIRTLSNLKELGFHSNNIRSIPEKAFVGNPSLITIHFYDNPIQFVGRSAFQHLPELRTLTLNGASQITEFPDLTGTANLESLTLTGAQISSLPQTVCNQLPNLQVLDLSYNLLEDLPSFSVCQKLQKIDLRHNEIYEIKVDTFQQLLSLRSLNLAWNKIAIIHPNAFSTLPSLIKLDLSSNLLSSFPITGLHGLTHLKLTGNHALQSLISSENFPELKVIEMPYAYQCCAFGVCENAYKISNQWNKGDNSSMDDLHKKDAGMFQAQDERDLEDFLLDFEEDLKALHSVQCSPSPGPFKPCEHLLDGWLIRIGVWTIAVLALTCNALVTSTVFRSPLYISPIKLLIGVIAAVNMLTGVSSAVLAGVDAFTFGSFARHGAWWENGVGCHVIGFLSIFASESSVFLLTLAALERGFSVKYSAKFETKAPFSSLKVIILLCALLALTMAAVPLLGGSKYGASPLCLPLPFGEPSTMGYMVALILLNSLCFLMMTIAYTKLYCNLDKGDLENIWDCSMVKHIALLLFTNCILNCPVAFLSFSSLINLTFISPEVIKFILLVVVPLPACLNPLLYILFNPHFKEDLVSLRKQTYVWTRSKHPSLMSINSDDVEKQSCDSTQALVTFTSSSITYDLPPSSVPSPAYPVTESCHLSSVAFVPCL", "assay": "flow cytometry on cells"}, "[2]": {"molecular_target": "human ephrin type-A receptor 2 (EphA2), ectopically expressed on CHO cells (Homo sapiens, UniProt P29317)", "sequence (P29317 24-976)": "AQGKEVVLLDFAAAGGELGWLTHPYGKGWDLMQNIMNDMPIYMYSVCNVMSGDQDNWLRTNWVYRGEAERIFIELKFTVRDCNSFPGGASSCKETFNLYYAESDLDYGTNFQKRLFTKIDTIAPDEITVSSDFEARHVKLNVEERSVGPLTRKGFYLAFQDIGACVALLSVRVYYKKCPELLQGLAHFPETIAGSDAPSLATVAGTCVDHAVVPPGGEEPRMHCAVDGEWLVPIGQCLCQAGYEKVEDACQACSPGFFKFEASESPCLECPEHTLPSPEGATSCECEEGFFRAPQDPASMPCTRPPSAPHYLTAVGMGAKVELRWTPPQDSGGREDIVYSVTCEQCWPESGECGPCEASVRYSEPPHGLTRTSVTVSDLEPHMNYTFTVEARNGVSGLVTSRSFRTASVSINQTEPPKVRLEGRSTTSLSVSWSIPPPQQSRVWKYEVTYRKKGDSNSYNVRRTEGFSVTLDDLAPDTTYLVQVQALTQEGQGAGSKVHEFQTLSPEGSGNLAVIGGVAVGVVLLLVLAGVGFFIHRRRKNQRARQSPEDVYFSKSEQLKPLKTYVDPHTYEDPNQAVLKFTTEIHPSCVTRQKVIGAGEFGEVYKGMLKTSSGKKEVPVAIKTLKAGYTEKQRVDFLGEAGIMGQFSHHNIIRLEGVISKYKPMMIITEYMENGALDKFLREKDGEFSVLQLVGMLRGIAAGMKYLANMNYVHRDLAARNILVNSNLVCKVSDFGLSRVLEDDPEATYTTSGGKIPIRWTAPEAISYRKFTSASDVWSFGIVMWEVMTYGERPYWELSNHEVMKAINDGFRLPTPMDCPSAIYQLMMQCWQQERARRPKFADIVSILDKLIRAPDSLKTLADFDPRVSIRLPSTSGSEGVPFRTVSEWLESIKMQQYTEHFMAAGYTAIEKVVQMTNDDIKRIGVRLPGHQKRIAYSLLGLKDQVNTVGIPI", "assay": "flow cytometry on cells"}},
  "data": [
    {"binder": "B1", "values": [
      {"measurement": "binding result", "setting": "[1]", "value": "no binding"},
      {"measurement": "binding result", "setting": "[2]", "value": "binds"}
    ]}
  ]
}
